According to the supplement of paper PMC9876800:

System: peptide library, one residue held at a place counted from the S/T acceptor
Assay: relative phosphorylation of the sub-library (ratio to the mean residue at this position); higher = residue favoured
Settings: human
Outline: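 In 384-well plates, purified recombinant kinases (human or orthologue constructs) were incubated for 90 min under kinase-specific conditions with 50 μM biotinylated degenerate peptide sub-libraries and 50 μM ATP spiked with γ-32P-ATP. Each sub-library fixed a single residue at one position around a central Ser/Thr. Relative sub-library phosphorylation, measured by phosphorimaging and densitometry of streptavidin membrane spots, is given as a ratio to the mean residue at that position.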

Sequence of STK3, construct: Full length (Q13188 whole entry, looked up): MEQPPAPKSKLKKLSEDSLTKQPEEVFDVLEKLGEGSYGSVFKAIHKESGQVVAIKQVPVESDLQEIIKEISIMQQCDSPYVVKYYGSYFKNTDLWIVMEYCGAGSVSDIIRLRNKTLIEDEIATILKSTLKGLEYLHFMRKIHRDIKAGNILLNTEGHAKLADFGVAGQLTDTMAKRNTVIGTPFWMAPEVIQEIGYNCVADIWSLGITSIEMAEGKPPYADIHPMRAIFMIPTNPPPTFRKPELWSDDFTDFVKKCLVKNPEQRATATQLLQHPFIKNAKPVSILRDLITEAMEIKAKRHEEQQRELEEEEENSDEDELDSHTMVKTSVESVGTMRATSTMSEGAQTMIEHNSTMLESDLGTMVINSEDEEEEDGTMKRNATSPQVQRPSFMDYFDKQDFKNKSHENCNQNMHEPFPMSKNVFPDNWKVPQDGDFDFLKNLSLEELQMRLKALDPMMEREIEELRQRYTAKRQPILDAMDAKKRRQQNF
Sequence of TAOK1, construct: aa1-356 (Q7L7X3 1-356, looked up): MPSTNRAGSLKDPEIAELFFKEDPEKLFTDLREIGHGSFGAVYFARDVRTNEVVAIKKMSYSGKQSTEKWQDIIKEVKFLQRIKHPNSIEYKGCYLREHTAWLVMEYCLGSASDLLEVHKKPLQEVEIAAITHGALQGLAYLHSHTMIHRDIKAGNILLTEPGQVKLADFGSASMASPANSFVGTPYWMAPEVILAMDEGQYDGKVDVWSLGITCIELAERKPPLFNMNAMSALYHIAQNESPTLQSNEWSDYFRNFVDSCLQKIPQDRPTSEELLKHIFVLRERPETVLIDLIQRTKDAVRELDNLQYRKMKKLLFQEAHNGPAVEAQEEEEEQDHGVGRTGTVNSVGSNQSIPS
Sequence of TRPM7, construct: aa1158-1865 (Q96QT4 1158-1865, looked up): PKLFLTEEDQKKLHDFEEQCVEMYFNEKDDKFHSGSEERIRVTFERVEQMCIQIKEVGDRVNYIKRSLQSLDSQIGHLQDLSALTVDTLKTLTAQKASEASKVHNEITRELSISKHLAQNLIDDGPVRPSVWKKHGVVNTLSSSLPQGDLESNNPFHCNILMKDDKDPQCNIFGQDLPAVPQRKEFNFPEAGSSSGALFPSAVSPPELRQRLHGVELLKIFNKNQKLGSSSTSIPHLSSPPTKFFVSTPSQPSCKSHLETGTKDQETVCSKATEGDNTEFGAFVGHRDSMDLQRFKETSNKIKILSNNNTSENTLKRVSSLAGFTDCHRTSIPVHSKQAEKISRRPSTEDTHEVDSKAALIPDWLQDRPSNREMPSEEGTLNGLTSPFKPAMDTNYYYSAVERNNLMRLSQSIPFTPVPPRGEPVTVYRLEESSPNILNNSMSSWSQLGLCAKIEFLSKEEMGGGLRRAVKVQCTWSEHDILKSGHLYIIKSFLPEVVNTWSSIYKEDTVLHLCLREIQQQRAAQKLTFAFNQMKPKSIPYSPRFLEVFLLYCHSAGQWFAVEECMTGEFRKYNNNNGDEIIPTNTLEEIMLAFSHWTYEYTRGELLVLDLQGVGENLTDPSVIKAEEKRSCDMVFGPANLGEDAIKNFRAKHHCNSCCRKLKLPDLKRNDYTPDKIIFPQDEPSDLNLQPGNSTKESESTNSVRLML
Sequence of SBK1, construct: Full length (Q52WX2 whole entry, looked up): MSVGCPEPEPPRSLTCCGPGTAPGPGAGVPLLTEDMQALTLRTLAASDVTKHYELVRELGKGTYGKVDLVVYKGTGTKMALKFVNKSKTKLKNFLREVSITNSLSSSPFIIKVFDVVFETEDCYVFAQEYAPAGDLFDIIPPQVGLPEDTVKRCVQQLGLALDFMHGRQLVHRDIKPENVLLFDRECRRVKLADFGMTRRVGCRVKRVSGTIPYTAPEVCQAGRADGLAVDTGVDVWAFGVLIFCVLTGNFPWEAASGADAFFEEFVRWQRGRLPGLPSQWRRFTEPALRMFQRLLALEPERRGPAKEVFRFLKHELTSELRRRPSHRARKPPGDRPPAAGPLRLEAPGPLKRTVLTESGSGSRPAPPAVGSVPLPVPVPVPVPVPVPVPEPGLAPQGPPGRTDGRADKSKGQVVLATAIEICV
Sequence of RPS6KA2, construct: Full length (Q15349 whole entry, looked up): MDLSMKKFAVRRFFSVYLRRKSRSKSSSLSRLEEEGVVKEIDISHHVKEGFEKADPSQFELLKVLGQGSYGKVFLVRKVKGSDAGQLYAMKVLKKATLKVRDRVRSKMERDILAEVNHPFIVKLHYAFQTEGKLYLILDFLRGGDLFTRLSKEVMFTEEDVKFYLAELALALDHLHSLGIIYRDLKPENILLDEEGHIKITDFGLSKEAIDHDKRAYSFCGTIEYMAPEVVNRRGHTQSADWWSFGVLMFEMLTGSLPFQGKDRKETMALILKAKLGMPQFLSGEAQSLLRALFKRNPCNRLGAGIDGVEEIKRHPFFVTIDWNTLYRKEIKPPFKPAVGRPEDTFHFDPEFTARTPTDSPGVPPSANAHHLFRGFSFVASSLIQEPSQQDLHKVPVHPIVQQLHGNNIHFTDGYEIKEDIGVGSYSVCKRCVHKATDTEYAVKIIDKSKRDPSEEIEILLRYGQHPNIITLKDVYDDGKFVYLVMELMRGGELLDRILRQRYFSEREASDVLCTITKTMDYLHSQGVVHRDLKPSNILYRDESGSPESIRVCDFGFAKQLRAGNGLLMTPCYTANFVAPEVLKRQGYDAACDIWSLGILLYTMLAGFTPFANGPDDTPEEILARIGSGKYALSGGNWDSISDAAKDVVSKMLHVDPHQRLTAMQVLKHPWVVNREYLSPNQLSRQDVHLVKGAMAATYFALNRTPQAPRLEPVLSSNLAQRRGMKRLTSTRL

RPS6KA2, construct: Full length (from UniProt Q15349)
relative phosphorylation
Settings	at +1	at +2	at +3	at +4	at -1	at -2	at -3	at -4	at -5
A fixed	0.795	1.22	1.14	1.18	0.925	0.766	0.741	1.41	1.13
D fixed	0.457	0.669	0.976	0.77	0.569	0.763	0.455	0.572	0.435
E fixed	0.806	0.601	0.792	0.661	0.505	0.589	0.562	0.639	0.417
F fixed	1.32	0.708	0.99	0.844	0.752	0.54	0.373	0.851	0.915
G fixed	0.658	1.24	1.21	1.22	1.21	0.914	0.583	1.12	1.1
H fixed	1.31	1.66	1.19	1.32	1.18	1.26	0.672	1.1	1.11
I fixed	1.22	0.994	0.855	0.88	0.384	0.502	0.308	0.657	0.72
K fixed	0.972	1.04	1.03	1.22	1.5	2.21	1.47	1.58	2
L fixed	0.925	0.616	1.04	0.839	0.916	1.05	0.311	0.801	0.862
M fixed	1.09	0.742	0.912	0.887	1.12	0.761	0.449	0.916	0.715
N fixed	0.769	0.781	0.706	0.68	1.16	0.697	0.434	0.743	0.755
P fixed	0.338	0.794	1.04	1.27	1.58	0.467	0.632	0.984	0.865
Q fixed	0.925	0.566	0.717	0.916	0.861	0.879	0.603	0.956	0.702
R fixed	0.998	1.82	1.09	0.886	1.6	4.34	8.11	2.03	3.49
V fixed	1.75	1.11	0.92	0.819	0.683	0.35	0.365	0.786	0.713
W fixed	1.05	0.973	1.17	1.44	0.793	0.409	0.443	0.954	0.171
Y fixed	1.61	1.47	1.23	1.16	1.26	0.503	0.49	0.894	0.903
pThr fixed	1	0.781	1.22	1.03	0.307	0.308	0.269	0.637	0.391
pTyr fixed	1.55	1.05	1.25	0.999	0.657	0.368	0.555	0.636	0.526

SBK1, construct: Full length (from UniProt Q52WX2)
relative phosphorylation
Settings	at +1	at +2	at +3	at +4	at -1	at -2	at -3	at -4	at -5
A fixed	0.96	0.91	0.834	0.989	0.983	1.24	0.407	1.08	0.746
D fixed	0.948	1.5	1.36	1.18	1.06	0.195	0.0944	0.269	0.195
E fixed	0.863	1.29	1.41	1.01	0.51	0.239	0.113	0.58	0.186
F fixed	0.737	1	0.925	0.851	0.808	0.782	0.161	0.922	2.33
G fixed	1.32	1.01	1.18	1.25	1.22	0.42	0.151	0.634	0.383
H fixed	0.958	1.36	1.11	1.14	1.38	1.02	0.37	1.29	0.5
I fixed	0.817	0.677	0.747	0.787	0.251	0.861	0.133	0.753	1.97
K fixed	0.485	0.494	0.622	0.828	0.982	1.71	1.76	1.99	0.506
L fixed	0.93	0.881	0.812	0.905	0.862	0.957	0.166	0.656	1.83
M fixed	0.852	0.849	0.793	0.983	1.15	1.75	0.184	0.998	1.09
N fixed	1.35	1.18	1.07	1.18	1.94	0.609	0.187	0.49	0.255
P fixed	2.53	1.08	1.64	1.69	1.74	0.27	0.188	0.275	1.15
Q fixed	1.12	1.17	1.04	0.994	1.07	1.21	0.581	1.18	0.597
R fixed	0.531	0.682	0.619	0.709	0.828	2.71	12	2.72	1.07
V fixed	0.953	0.693	0.77	0.699	0.401	1.27	0.153	0.95	1.22
W fixed	0.834	1.05	1.09	0.958	0.658	0.792	0.198	0.926	2.21
Y fixed	0.816	1.16	0.979	0.858	1.16	0.961	0.178	1.28	0.746
pThr fixed	0.598	1.1	1.02	1.4	0.203	0.181	0.105	0.261	0.193
pTyr fixed	0.717	1.35	1.36	1.6	0.745	0.215	0.0961	0.24	0.374

STK3, construct: Full length (from UniProt Q13188)
relative phosphorylation
Settings	at +1	at +2	at +3	at +4	at -1	at -2	at -3	at -4	at -5
A fixed	0.661	0.581	0.858	1.04	0.779	0.875	0.933	0.913	1.03
D fixed	0.346	0.503	0.732	0.903	2.13	1.3	1.5	1.32	1.46
E fixed	0.48	0.55	0.651	0.554	1.02	1.19	1.39	1.42	1.2
F fixed	0.902	0.508	0.855	0.762	0.651	1.64	0.919	1.07	0.976
G fixed	0.728	0.737	1.14	1.45	1.3	0.916	1.15	1.01	0.989
H fixed	0.58	1.48	1.11	1.13	1.13	1.18	0.957	1.07	1.15
I fixed	1.92	0.532	0.872	0.747	0.346	0.457	0.461	0.501	0.601
K fixed	0.419	2.81	1.41	1.26	1.17	0.444	0.517	0.821	0.784
L fixed	2.37	0.687	1.05	0.951	0.917	0.511	0.601	0.598	0.821
M fixed	2.76	0.687	0.886	1.02	0.823	0.877	0.727	0.789	0.817
N fixed	0.589	1.64	1.12	1.09	1.74	1.32	1.21	1.17	1.1
P fixed	0.26	0.733	1.1	1.18	0.706	0.555	1.08	0.926	1.23
Q fixed	0.761	1.28	1.06	1.24	1.26	0.953	1.15	1.32	1.06
R fixed	0.479	2.35	1.45	0.852	0.783	0.472	0.602	0.881	0.704
V fixed	1.09	0.747	0.827	0.871	0.511	0.514	0.64	0.809	0.89
W fixed	1.87	0.549	0.925	1.11	0.819	1.63	1.78	1.12	1.15
Y fixed	0.792	0.626	0.953	0.841	0.909	2.17	1.4	1.26	1.03
pThr fixed	1.04	1.05	0.9	0.916	0.849	1.04	1.18	1.08	1.06
pTyr fixed	0.632	0.544	0.771	0.75	0.599	1.56	1.26	1.2	1.24

TAOK1, construct: aa1-356 (from UniProt Q7L7X3)
relative phosphorylation
Settings	at +1	at +2	at +3	at +4	at -1	at -2	at -3	at -4	at -5
A fixed	0.401	0.732	0.799	0.651	0.775	1.05	0.861	0.969	0.986
D fixed	0.16	0.494	0.336	0.409	0.645	0.589	0.515	0.911	0.93
E fixed	0.122	0.282	0.296	0.421	0.345	0.42	0.59	0.969	0.816
F fixed	1.53	0.505	0.853	0.835	1.07	1.74	0.817	0.95	0.933
G fixed	0.352	0.705	1.06	0.773	1.47	1.42	1.73	1.29	1.18
H fixed	0.855	1.11	0.901	1.17	1.52	0.583	0.99	1.04	1.08
I fixed	1.83	0.612	0.692	0.786	0.381	0.577	0.533	0.696	0.757
K fixed	0.504	2.83	2.32	1.79	1.15	1.02	2.24	1.29	1.36
L fixed	1.85	0.54	0.809	0.727	1.08	0.629	0.554	0.728	0.773
M fixed	2.05	0.721	0.686	0.861	1.45	0.92	0.661	0.873	0.88
N fixed	0.398	1.46	0.87	0.805	1.31	0.9	0.875	0.999	0.982
P fixed	0.319	0.777	1.13	0.711	0.47	0.858	0.988	1.01	1.02
Q fixed	0.461	0.837	0.762	0.759	0.746	0.742	0.879	0.937	0.844
R fixed	0.559	3.26	2.89	2.44	1.44	1.08	1.81	1.39	1.24
V fixed	1.21	0.723	0.602	0.635	0.419	0.658	0.505	0.765	0.821
W fixed	2.88	0.622	1.08	1.76	0.996	1.13	1.06	1.05	1.21
Y fixed	1.52	0.794	0.916	1.46	1.73	2.68	1.39	1.13	1.18
pThr fixed	0.365	0.32	0.327	0.386	0.306	0.469	0.667	0.78	0.881
pTyr fixed	0.295	0.337	0.45	0.432	1.56	0.733	0.622	0.777	0.963

TRPM7, construct: aa1158-1865 (from UniProt Q96QT4)
relative phosphorylation
Settings	at +1	at +2	at +3	at +4	at -1	at -2	at -3	at -4	at -5
A fixed	0.649	1.18	1.19	0.591	0.902	1.13	0.852	1.08	1.17
D fixed	0.266	0.121	0.341	0.604	0.484	0.551	0.659	0.821	0.972
E fixed	0.501	0.0976	0.256	0.561	0.489	0.576	0.836	1.07	1.05
F fixed	0.859	1.81	0.854	0.958	0.58	1.19	1.06	1.19	1.03
G fixed	0.451	0.661	0.904	0.871	0.406	1.28	0.897	1.08	1.4
H fixed	1.1	1.22	1.22	1.34	1.47	0.842	1.05	0.86	1.1
I fixed	1.26	0.601	0.42	0.781	0.46	0.446	0.686	0.668	0.532
K fixed	2.16	1.21	2.47	2.09	2.76	0.931	1.13	1.31	1.24
L fixed	1.18	0.477	0.662	0.859	0.996	0.868	1.01	0.872	0.608
M fixed	1.06	0.808	0.664	1.12	0.969	1.42	1.19	1.17	0.767
N fixed	0.54	0.445	1.11	1.16	1.25	0.857	1.48	1.09	1.2
P fixed	0.142	1.42	0.623	0.676	0.896	1.28	1.07	0.972	1.1
Q fixed	1.58	1.11	1.15	1.17	1.07	1.11	0.995	0.948	1.01
R fixed	2.14	2.06	2.52	1.61	2.11	0.975	1.36	1.17	1.29
V fixed	1.1	0.572	0.573	0.637	0.586	0.553	0.74	0.675	0.732
W fixed	0.79	1.4	0.831	1.13	0.487	2.17	1.02	1.12	0.976
Y fixed	1.22	1.81	1.21	0.852	1.08	0.822	0.954	0.884	0.811
pThr fixed	0.455	0.317	0.499	0.68	0.488	0.704	0.893	1.11	1.05
pTyr fixed	0.856	0.489	0.677	0.541	0.776	0.675	1.09	0.916	1.08
